In the nanobody polyreactivity screen of Harvey et al. (2022):

Test: yeast display, Sf9 membrane polyspecificity reagent, FACS + sequencing; frameworks hold sequencing errors
Summary of the method: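 In a synthetic yeast display library (Saccharomyces cerevisiae BJ5465), nanobody expression was induced with galactose for 36–48 hours. FACS gates were set low and high (top ~1%) using anti-HA fluorescence for expression and streptavidin fluorescence for binding of the Sf9 membrane reagent. Each polyreactivity label is drawn from the gate of origin.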

Sequence	polyreactivity (PSR sort gate)
QVQLQVSGGDLVQAGGSLRLSCAASGTINGLTSMGWYRQAPGKEREFVAAITDGGYTNYADSVKGRFTISRDNAKNTVYLQMISLKPEDTAVYYCAVLFSDDAYYAYWGQGTQVTVSS	low polyreactivity
QVQLQVSGGGLVQAGGSLRLSCAASGSIFLTSEMGWYRQAPCKERELVAANATGTSTNYADSVKGRFTISRDNAKNTVYLQMKSLKPEDTSVYYCAAGTQAHAFVVRPIEMDYWGQGTQVTVSS	low polyreactivity
QVQLVASGGGLVLAGGILRLSCAASGSTFVSNALGWYRLAPGKERALVAVITFRGGTTYYADSVKGRFTISRDNAKNTVYLQMNSLKPEDTAGYYCAARSYQYSYSFYWGQGTQVTVSS	high polyreactivity
QVQLVASGGGLVQAGGSLLLSCAASGRIFAEYAMGWSRQAPGKERELVAVIDGTGGSTYYADSVKGRFTISRDNEKNTVYLLMNSLNPEDTAVYYCAATGRGSGRRFNYWGQGTQVTVSS	high polyreactivity
QVQLVASGGGLVQAGGSLRLSCAASGRIFSSNAMGWSRQAPGKEWELVAAITKSGGGTYYADSVKGRFTISRDNAKNTVYLQLNSLKPEDTAVYYCAKGQYRSSGYDYWGQGTQVTVSS	low polyreactivity
QVQLVASGGGLVQAGGSLRLSCAASGRTFYEYSIGWYRQAPGKERELDAGITSGGSTNYSDTVKGRFTISRDNATNPVFLLMNRLNPEDTAVYYCAAAYWGYEYDYWGQGTQVTLSS	low polyreactivity
QVQLVASGGGLVQAGGSLRLSCAASGSIFRFNPMGWSRHEPGKERELVAAISQSGSSTYYADSLKGRFTISRDNAKNTVYLQMNSLKPEDTAVYYCNVYTYQPYRMDLWRQGTQVTVSS	high polyreactivity
QVQLVASGGGLVQAGGSLRLSCAASGSTFRVNVMGWYRQAPGIERELVADITTSGGSTYYADSVKGRFTISRDNAMITVYLQINSLTPEDTAVYYCNTTYQSGWGPDMDYWGQGTQVTVSS	low polyreactivity
QVQLVASGGGLVQAGGSLRLSCAASGTTLYYYAKGWYRQAPGKEREMGAYISSSGDRTYYADSVNGRFTISRDNAKNTVDLQMNSLKPEDTAVYYCNAYLYVSGLDYATYSLGYWGQGTQVTVSS	low polyreactivity
QVQLVASGGGLVQAGGSLRLTCAASGITSWYYAMGWYRQAPGKERELVAAITSDGSTYYADSVKGRFTISRDNAKNTVYLQMNSLNPEDTAVYYCAAERDYWIPDSYLVVMDYWGQGTQVTVSS	low polyreactivity
QVQLVDSAGGLVQAGGSLRLSCAAYGRTNYLYSMGWYRQAPGKERELVAAIRTGDGSTYYADSVKGRFTISRDNAKNTVYLQMISLKPEDTAVYYCAARVGKRYNWGQGTQVTVSS	high polyreactivity
QVQLVDSGGCLVQAGGSLRLSCAASGSTFPTYAMGWYRQAPGKERELVAAITWSGGSTYYADSVKGRFTISRDNAKNTVYLQMNSLKPEDTAVYYCADSAYVQPYDYWGQGTQVTVSS	high polyreactivity
QVQLVDSGGGFFQAGGSLRLSCAPSGITFVVYAMGWYRQAPGKERDLVAAITAGGSTYADSVKGRFTISRDNAKTTVYLQMNSLKPEDTAVYDCNTGLYLYVGLGDHDYWGQGTQVTVSS	low polyreactivity
QVQLVDSGGGLDQAGGSLRLSCAASGSIFVSEYDMVWYIQAPGKERELVARSRWSSGSTYYADSVKGRFSISRDYAKNTVYVQMNSLKPEDTAVYYCNTVRTRERTDYDYWGQGTQVTVSS	low polyreactivity
QVQLVDSGGGLDQAGGSLRLSCAASGSTFYYNAMGWYRQPPGKARELVARISRSGGSTYADSVKGRFTISRDNAMNTVYLQMNSLKPEDTAVYYCNADADGTPEFTSYSVRYDYWGQGSQVTVSS	low polyreactivity
QVQLVDSGGGLLQAGGSLRLSCAASGNIFGRYAMGWYRQAPGKEREFVATITYSGGSTYYADSVKGRFTISRDNAKNTVYLQMNSLKPEDTAVYYCAARVGRPSLVAAKYDYWGQGTQVTVSS	high polyreactivity
QVQLVDSGGGLLQAGGSLRLSCAASGRTCRGYAMGWYRQAPGKEWELVAAITSGGSTNYADSVKGRFTISRDNATNTVSIQMNRLKPEETAVYYCAAGRSTGQYRYYFWGLGTQVTVSS	high polyreactivity
QVQLVDSGGGLLQAGGSLRLSCAASGSTFVAYAMGWYRQAPGKEREFVAGISSSTGGTRYADSVKGRFTISRDNAKNTVYLQMNSLKPEDSAVYYCAADLYFYYVWIRVYWGQGTQVTVSS	low polyreactivity
QVQLVDSGGGLVLAGGSLRLSCAASGRTFAYYVMGWYREAPGKERELVAAISGRGGRTNYADSVKGRFTISRDNANNTVFLQMNSLKPEDTAVYYFAADLKLGTFNYWGQGTQVTVSS	high polyreactivity
QVQLVDSGGGLVQAGCSLRLSCPASGGTFGYYAMGWYRQAPGKERELVAGINYSGGRTYYADSVKGRFTISRDNAMNTVYLKMDSLKPEDTAVYYCAAQAYVGYRGYDYWVQGTQVTVSS	high polyreactivity
QVQLVDSGGGLVQAGGILSLSCASSGRTFYRYAMGWYRQAPGKERELVAAISATGCSTYYADSVKGRFTISRDNEKNTGYFQMNIMKPEDSAVDYCARGGTTLYWGQGTQLTVSS	high polyreactivity
QVQLVDSGGGLVQAGGRLLLSCSDSGINIPYYAMGWYRQAPGKERELVASISYDGTSSYYADSVKGRFTISRDNAKNTVYLHLNSLKPEDTAVYYCAPVPWWPRASYSMDYWGQGTQVTLSS	low polyreactivity

Sequence	polyreactivity (PSR sort gate)
QVQLVDSGGGLVQAGGRLRLSCAASGFIIDWNTKGWYRQAPGKERELVAAITESSGSTYYADSVKGRFTISRDNAKNTVYLLMNSLKPVDTAVYYCGAELDVSVCFVSRFHFDYWGQGTQVTVSS	low polyreactivity
QVQLVDSGGGLVQAGGRLRLSSAPTGSTFYVYLMGGYRQAHGKERELVAVIDWLGGSTYYADSVKGRFTISRDNAKNTVYLQLNSLKPEDTAVYYCYKDAQFYYNLPYYKERDWGQGTQVTVSS	low polyreactivity
QVQLVDSGGGLVQAGGSHRLSCAASGRIFVAYAMGWYRQAPGKERELVAGISRGGSTYYADSVKGRFTISRDNAKNTVYLQMNSLKPEDTAVYYCATDQRVRRYDYWGQGTQVTVSS	low polyreactivity
QVQLVDSGGGLVQAGGSHRLSCAASGSTFRRNAMGWYRQAPGKERELVAAITRGGSTNYADSVKGRFTISRDNAKNTVYLQMNSLNPEDTAVYYCARVYLGAYRERYVYPYDYWGQGTQVTVSS	high polyreactivity
QVQLVDSGGGLVQAGGSISLSCAASGRTFFVNAMGWYRQAPGKERELVAAITRRGGITYYADSVKGRFTISRDNAKNTVYLQMNSLKPEDTAVYYCAADRSYYPDTRTTYGYNYWGQGTQVTVSS	low polyreactivity
QVQLVDSGGGLVQAGGSLPLSCAASGSILLPYAMGWYRQAPGKERELVAALSQRGGSTYYADSVKGRFTISRDNAKNTVYLQMNSLKPEDTAVYYCNAVGGEHTPSQAFAGYDYWGQGTQVTVSS	low polyreactivity
QVQLVDSGGGLVQAGGSLRLICAASGITFRHYAMGWYRTAPGKERELVAAITRRGGSTRYADSVKGRFTISRDNAKNTVYLQMNSLKPEDTAVYYCNAVYWSEGDWSERRDYWGQGTQVTVSS	high polyreactivity
QVQLVDSGGGLVQAGGSLRLICAASGRIFYTNAMGWYRQAPGKERELVAAIDYSDSTTYYADSVKRRYTISRDNAKNTVYLQMNSLKPEDTAVYYCAAESYLYTVTFEYWGQGTQVTVSS	high polyreactivity
QVQLVDSGGGLVQAGGSLRLICAASGRTFYYYAMGWYRQAPGKERELVAGISSGVSTTYADSVKGRFTISRDNAKNTVYLQLNSLKPEDTAFYYCAARWRPNRAYIGYDYWGQGTQVTVSS	low polyreactivity
QVQLVDSGGGLVQAGGSLRLICAASGSTFYHYAMGWYRQAPGKERELVAAISSSGGRTYYADSVKGRFTISRDNAKNTVYLQMNSLKPEDTAVYYCAARAKTSGSIEDYWGQGTQVTVSS	high polyreactivity
QVQLVDSGGGLVQAGGSLRLRCAASGITFLGNDMGWYRQAPGKERELVAAISSGSTNYADSVKGRFTISRDNANKTVDLQMNSLKPADPAVYYCAADIRGGLSNYSPKDYDYWGQGTQVTVSS	low polyreactivity
QVQLVDSGGGLVQAGGSLRLSCAASGAIFEYYAMAWNRQAPGKERELVAAISWSGGSTYYADSVKGRFTISRDNAKNTVYLQMNSLKPEDTAVYYCAADYYLYQVYTGYDYWGQGTQVNVSS	low polyreactivity
QVQLVDSGGGLVQAGGSLRLSCAASGFIFDVYAMGGYRQAPGKERELVAAITSGDGTNYADSVKGRFTISRDNAKNTVYFQMNSLKPEDTAVYYCAADDGVTYRGIIFSYWGQGTQVTVSS	low polyreactivity
QVQLVDSGGGLVQAGGSLRLSCAASGFIFPINAMGWYRQAPGKERELVAAITGGGSTSYADSVKGRFTISRDNAKNTVYLQMNSLKPEDTAVYYCATDRLTYTKYGYWGQGTLVTVSS	low polyreactivity
QVQLVDSGGGLVQAGGSLRLSCAASGFIFVGYGMGWYRQAPGKERELVAAIDGGGSTYYADSVKGRFTISRDNAKNTVYLQMNSLKPEDTAVYYCNALPAYGWYDYDYWGQGTQVTVSS	low polyreactivity
QVQLVDSGGGLVQAGGSLRLSCAASGFNFDQYGLGWYRQAPGKERELVASITSTGSTYYADSVKGRFTISRDNAKNTVYLQMNSLKPEDTAVYYCATDSYDGMDYWGQGTQVTVSS	low polyreactivity
QVQLVDSGGGLVQAGGSLRLSCAASGFTFRDYAMGWYRQAPRKERELVAAISRSGDSTYYADSVKGRFTISRDNAKNTVYLQMNSLKPEDTAVYYCNTAGFYWLHYTMDYWGQGTQVTVSS	high polyreactivity
QVQLVDSGGGLVQAGGSLRLSCAASGFTFYSYAMGWYRQAPGKERELVASITSGGSTYYADSVKGLFTISRDNGKNTVYLPMNSLNPEYTAVSYCAATRGYSQYGRVRKYGYWGLGTQVTVSS	high polyreactivity
QVQLVDSGGGLVQAGGSLRLSCAASGIIFVGYAMGWYRQAPGKERELVAAITYNVGSTYYADSVKGRFTISRDNAKNTVYLQMKSLKPEDTAVYYCNADRYPFFDLLISRYGSNPYDYWGQGTQVTVSS	low polyreactivity
QVQLVDSGGGLVQAGGSLRLSCAASGIIFWRYAMGWYRQAPGKERELVASISSSGGRTYYADSVKGRFTISRDNAKNTVYLQMNSLKPEDTAVYYCAARGPYGYDLLYYWGQGTQVTVSS	high polyreactivity
QVQLVDSGGGLVQAGGSLRLSCAASGIIFWYYTRGWYRQAPGKERELVASISRGGSTYYADSVKGRFTISRDNAKNTVYLQMNSLKPEDTAVYYCARRPNTGPYGNYDYWGQGTQVTVSS	high polyreactivity
